Experimental data: the array DNA melting data of Ke et al.

Experiment: melting temperature; melt of duplexes
Conditions: sodium 0.0675 M; strand 1 µM

First: CGACGTGCAAAATGTGCTG+CAGCACATACGGCACGTCG ((((((((...((((((((+))))))))...))))))))
Second: CGACGTGCGTCATGTGCTG+CAGCACATACTGCACGTCG ((((((((...((((((((+))))))))...))))))))
The Tm of the first is lower: 48 °C for the first, 50.9 °C for the second.

Going from “CGACGTGCTGAATGTGCTG+CAGCACATGAAGCACGTCG (((((((((..((((((((+))))))))..)))))))))” to “CGACGTGCCGAATGTGCTG+CAGCACATTGAGCACGTCG ((((((((..(((((((((+)))))))))..))))))))”, the Tm falls from 59.3 °C to 53.3 °C.

Compared with “CGACGTGCCAAATGTGCTG+CAGCACATAGAGCACGTCG ((((((((...((((((((+))))))))...))))))))”, “CGACGTGCATCATGTGCTG+CAGCACATGATGCACGTCG (((((((((((((((((((+)))))))))))))))))))” is higher in Tm: 49.1 °C for the first, 64.8 °C for the second.

Compared with “CGACGTGCAACATGTGCTG+CAGCACATCATGCACGTCG (((((((((..((((((((+))))))))..)))))))))”, “CGACGTGCGGCATGTGCTG+CAGCACATATAGCACGTCG ((((((((...((((((((+))))))))...))))))))” is higher in Tm: 49 °C for the first, 54.7 °C for the second.

First: CGACGTGCTCCATGTGCTG+CAGCACATGGGGCACGTCG ((((((((.((((((((((+)))))))))).))))))))
Second: CGACGTGCTGGATGTGCTG+CAGCACATAAAGCACGTCG (((((((((..((((((((+))))))))..)))))))))
The Tm of the first is higher: 61.9 °C for the first, 55.3 °C for the second.

First: CGACGTGCCGTATGTGCTG+CAGCACATCTCGCACGTCG ((((((((...((((((((+))))))))...))))))))
Second: CGACGTGCGCAATGTGCTG+CAGCACATTATGCACGTCG ((((((((..(((((((((+)))))))))..))))))))
The Tm of the first is lower: 48.5 °C for the first, 52.6 °C for the second.

Going from “CGACGTGCTTGATGTGCTG+CAGCACATTTCGCACGTCG ((((((((...((((((((+))))))))...))))))))” to “CGACGTGCGGAATGTGCTG+CAGCACATCCGGCACGTCG ((((((((.(.((((((((+)))))))).).))))))))”, the Tm rises from 48.5 °C to 55.7 °C.

Compared with “CGACGTGCACCATGTGCTG+CAGCACATCTTGCACGTCG (((((((((..((((((((+))))))))..)))))))))”, “CGACGTGCGGCATGTGCTG+CAGCACATGACGCACGTCG (((((((((.(((((((((+))))))))).)))))))))” is higher in Tm: 45.7 °C for the first, 64 °C for the second.

Going from “CGACGTGCAAAATGTGCTG+CAGCACATGAAGCACGTCG ((((((((...((((((((+))))))))...))))))))” to “CGACGTGCGTCATGTGCTG+CAGCACATCTAGCACGTCG ((((((((...((((((((+))))))))...))))))))”, the Tm falls from 53.7 °C to 51.5 °C.

Compared with “CGACGTGCCCTATGTGCTG+CAGCACATATAGCACGTCG ((((((((..(((((((((+)))))))))..))))))))”, “CGACGTGCTACATGTGCTG+CAGCACATACCGCACGTCG ((((((((...((((((((+))))))))...))))))))” is lower in Tm: 49.6 °C for the first, 47.5 °C for the second.

First: CGACGTGCTGGATGTGCTG+CAGCACATATTGCACGTCG ((((((((...((((((((+))))))))...))))))))
Second: CGACGTGCGGTATGTGCTG+CAGCACATAGTGCACGTCG ((((((((..(((((((((+)))))))))..))))))))
The Tm of the first is lower: 50.9 °C for the first, 53 °C for the second.

Compared with “CGACGTGCCCTATGTGCTG+CAGCACATACGGCACGTCG (((((((((.(((((((((+))))))))).)))))))))”, “CGACGTGCTCAATGTGCTG+CAGCACATGACGCACGTCG ((((((((...((((((((+))))))))...))))))))” is lower in Tm: 53.5 °C for the first, 48.7 °C for the second.

Going from “CGACGTGCTTAATGTGCTG+CAGCACATTGAGCACGTCG (((((((((.(((((((((+))))))))).)))))))))” to “CGACGTGCGGTATGTGCTG+CAGCACATCCAGCACGTCG ((((((((.(.((((((((+)))))))).).))))))))”, the Tm falls from 56.9 °C to 55.1 °C.

Going from “CGACGTGCACAATGTGCTG+CAGCACATTAAGCACGTCG ((((((((..(((((((((+)))))))))..))))))))” to “CGACGTGCGTCATGTGCTG+CAGCACATTACGCACGTCG ((((((((((.((((((((+)))))))).))))))))))”, the Tm rises from 49 °C to 57.4 °C.

Going from “CGACGTGCTAAATGTGCTG+CAGCACATGGCGCACGTCG ((((((((...((((((((+))))))))...))))))))” to “CGACGTGCTTTATGTGCTG+CAGCACATGTGGCACGTCG ((((((((...((((((((+))))))))...))))))))”, the Tm falls from 51.2 °C to 49.6 °C.

First: CGACGTGCTTTATGTGCTG+CAGCACATCGAGCACGTCG (((((((((..((((((((+))))))))..)))))))))
Second: CGACGTGCTCTATGTGCTG+CAGCACATCTAGCACGTCG (((((((((..((((((((+))))))))..)))))))))
The Tm of the first is higher: 51.3 °C for the first, 50.6 °C for the second.

Going from “CGACGTGCAATATGTGCTG+CAGCACATGAAGCACGTCG ((((((((...((((((((+))))))))...))))))))” to “CGACGTGCAACATGTGCTG+CAGCACATCAAGCACGTCG ((((((((...((((((((+))))))))...))))))))”, the Tm falls from 52.3 °C to 47.1 °C.

Compared with “CGACGTGCTCTATGTGCTG+CAGCACATAGTGCACGTCG ((((((((.((((((((((+)))))))))).))))))))”, “CGACGTGCCATATGTGCTG+CAGCACATAAGGCACGTCG (((((((((.(((((((((+))))))))).)))))))))” is higher in Tm: 54.1 °C for the first, 56.9 °C for the second.

First: CGACGTGCAGTATGTGCTG+CAGCACATCTCGCACGTCG ((((((((...((((((((+))))))))...))))))))
Second: CGACGTGCTGCATGTGCTG+CAGCACATATTGCACGTCG ((((((((...((((((((+))))))))...))))))))
The Tm of the first is higher: 50.1 °C for the first, 49.3 °C for the second.

Going from “CGACGTGCTATATGTGCTG+CAGCACATCGCGCACGTCG ((((((((...((((((((+))))))))...))))))))” to “CGACGTGCGACATGTGCTG+CAGCACATGGCGCACGTCG (((((((((.(((((((((+))))))))).)))))))))”, the Tm rises from 46.6 °C to 65.2 °C.

Going from “CGACGTGCTACATGTGCTG+CAGCACATCTTGCACGTCG ((((((((.(.((((((((+)))))))).).))))))))” to “CGACGTGCGAAATGTGCTG+CAGCACATCTGGCACGTCG ((((((((.(.((((((((+)))))))).).))))))))”, the Tm rises from 49.3 °C to 50.6 °C.

Going from “CGACGTGCCTCATGTGCTG+CAGCACATAAGGCACGTCG ((((((((((.((((((((+)))))))).))))))))))” to “CGACGTGCTGTATGTGCTG+CAGCACATTCAGCACGTCG ((((((((((.((((((((+)))))))).))))))))))”, the Tm rises from 56.2 °C to 57.5 °C.

Going from “CGACGTGCGTAATGTGCTG+CAGCACATATAGCACGTCG ((((((((...((((((((+))))))))...))))))))” to “CGACGTGCTGAATGTGCTG+CAGCACATAAAGCACGTCG (((((((((..((((((((+))))))))..)))))))))”, the Tm rises from 54.5 °C to 55.5 °C.

Going from “CGACGTGCGTAATGTGCTG+CAGCACATCATGCACGTCG ((((((((.(.((((((((+)))))))).).))))))))” to “CGACGTGCCTGATGTGCTG+CAGCACATGCCGCACGTCG ((((((((...((((((((+))))))))...))))))))”, the Tm falls from 52.3 °C to 47.5 °C.

Going from “CGACGTGCTGCATGTGCTG+CAGCACATAGAGCACGTCG (((((((((..((((((((+))))))))..)))))))))” to “CGACGTGCTGCATGTGCTG+CAGCACATTTGGCACGTCG ((((((((...((((((((+))))))))...))))))))”, the Tm falls from 52.3 °C to 49.1 °C.

Going from “CGACGTGCACGATGTGCTG+CAGCACATACCGCACGTCG ((((((((...((((((((+))))))))...))))))))” to “CGACGTGCTGTATGTGCTG+CAGCACATTCCGCACGTCG ((((((((.(.((((((((+)))))))).).))))))))”, the Tm rises from 43.6 °C to 50.1 °C.
